Source: the DeepSol protein solubility set

Assay: soluble on expression in E. coli; label from the status in PepcDB or PDB records

Soluble on expression in E. coli, not soluble:
MGSDKIHHHHHHMSSDPTSGAAITVEGLKKVFRIYERPRDRILQLILPGKRKFYREFQALDDVSFTVQKGQAVGIIGRNGSGKSTLLQMICGILHPTAGKVSCSGRVAALLELGAGFNPDFTGRENVYMNATLLGLTTAAVDERMDDILAFAEIGDFIDHPVKTYSSGMFVRLAFAVMAHVDAEILIIDEALAVGDAAFGQKCMRFLRRFRETGTILFVSHDTAAVIGLCDRAVWLDRGKMIIEGDAKTVCEAYYGHLFGGTVETPPEKTVEAITPSPAPEGPRPKVRAEDWVDGRREWINHSSLRNDIEVFTFDPSGTDFGAGGAEIEDVRLTDDDGHPYAWIVGGEPTRLRVTVRVRDELRSPIIGFFVKDRLGQTLFGDNTFMNEKKLSKPALPGQILEANFRFPMPILPPGTYSIAVAVADGTQTDHVQHHWLHDAVMVKSHVSHATAGLVGIPMFEVRFECHDPVASPSSSMDKVGIVD
MGSDKIHHHHHHMSSEIVIRVKNLSKCFNIYDQPRDRLKQAILPRLQRLFGRPQKSYHKEFWALRNADFEIRRGETVGIIGRNGSGKSTLLQLLCGTLTPTHGDIEVTGKVAALLELGAGFNPEFTGRENVFLSGSFYGLTREQVQERFDRIAAFADIGDHIEQPVKTYSSGMFVRLAFAVIAHVDADILVIDEALSVGDAVFTQKCMRFIRSFQEKGTLLFVSHDMQSVVNLCRNAIWLNAGETRMKGTSKNVSEAYLKYTLQEVYGEEAILLSAAPKESTLDAPMFEEAGPPMLDYEAVASVSSNLFDAKGWKTGDAEIEAVQLESLTGENDGILRGGELVRMVVRARAHQPLERPVIGFMVRDRLGQNLFGENTLSLTALDQARVAAGQMFEGEFVFRLPMLPDGQYSVTASVADGDLHNNVQHHLLHDALIINVASSKVRWGLVGVPFERVTLNCI
MGSDKIHHHHHHMSSIIENLQLAAQQVHLINLYQANSEVVYTGYIDRLAPDGVVVNTYDDAGLQDGAVFMRYDVIDEVEMMSEDLDNMAFRLENATTEGLNSVPQPTVALDDQRPVLTQLVTQAQTDHQVVLLVLEDNENYLEGQVQQVTDQTITFKTFDKFNFKNNGQQEIPLAAIQILEFCGNELLLESAFVKTIHTHRATIKVSEFDDVDHTLNNALNEHQLIAIRSADGSDMFFVGFINALNADSVLLNLIDMTGQFGGYTLCRRSLIESVTTQSDYLQTMRGFIELNRQYELNVQPVLNDERLFDATTDLFDSILRQAATFNNLVHITTENPMLPAMTGYPGTLTNGHFIFYNVDDDNQINHVGTMIELDQVVELSFGYMDAYLLEKRLKSTGNL
MGSDKIHHHHHHMSSPSLGTEQVFPQQALLDPVLLRAFVAVADSGSFTRAAAATHLTQSTVSQQLKRLEQQLGCELLSRKGRYAMPTADGERLLGYARQILALMAEAGMTPAQPPLLRLAVAEDFAGTALMPILKKLITRFPSVKLEVQSGLSKPLYQAFQEGVVELALIKQRQGEHPAKACWPEALSWLAAADWQAVKAGEPVPLIAFPAGGLYRNEMAQLLDEAGIPWRLVYSSNSLEGVLCAVAAGMGVSLLPSRFIRAREHREITALPRATAMELALHLASSPGAELQWLADEIGAYCDRLSSGGSSVSCPNTSA
MGSDKIHHHHHHMSTIGSDLYNSLGLTTSSKVAKKEDALGQADFLKLMTEQLQHQDPLKPMENSAFLGQLAQFSTVQGIGDLNTKVGNFSDSMNSDQVLKGAALVGHNVLVPSAQVAIDATGSAKGVVAATSAGFVNFEITDANGTFVKQLSVPASAAGEVSFAWDGTDANGNRMAAGKYGITATQTDTAGAKSKLATYVDAPVDSVTIGSDGLYLNLTGLGTSPLANVLRVS
MGSDKIHHHHHHMSTNISWTDETINPIVGCSRISAGCQNCYASTAAASARLQQFPQYQKVKDWNGTVEFAESALLKPLSWKKPKRIFVCSMSDLFHENVPDQWRDRVFGIMAAAHWHIFQVLTKRPLNALKYFQNFNLAQRIKDAGNLVCKPELPLKNVWFGVTCENQEMADKRIPILLQIPAKVRFLSCEPLLEEIDLSEVFGLYEYEEGKFALKVGSRWESSPDWVIVGGESGKDARVCHIDWVRSLTRQCQAAEVPVFVKQLGSNCIESLPYIAGVPSTDYQFKTSDRKGGDISEFPEDLQVRKFPDIHKTR
MGSDKIHHHHHHMSTNLDQLTDWLKEHKITEVECMVSDLTGITRGKISPTNKFIAEKGMRLPESVLLQTVTGDYVEDDIYYELLDPADIDMICRPDQNAVYLVPWAVEPTAQVIHDTYDKQGNPIELSPRNVLKKVLKLYADQGWQPIVAPEMEFYLTKRSDDPDYPLQPPIGRSGRPETGRQSFSIEAANEFDPLFEDVYDWCELQNLDLDTLIHEDGTAQMEINFRHGDALSLADQILVFKRTMREAALKHDVAATFMAKPMTGEPGSAMHLHQSIIDIETGKNIFSNEDGTMSELFLNHVGGLQKFIPELLPLFAPNVNSFRRFLPDTSAPVNVEWGEENRTVGLRVPDAVPQNRRVENRLPGADANPYLAIAASLLCGFIGMVEGINPSAPVVGRGYERRNLRLPLTIEDALERMENSKTIEKYLGKKFIIGYVAVKRAEHENFKRVISSWEREFLLFAV
MGSDKIHHHHHHMSTPTRIITSKDIETGKHISPAQRLRIMNADEWEEFIEEWTDSLKKEYFKVERLGGAGDKGRDIVAQLENAEIWDNYQCKHYGHSLRPSDIWTEIGKLVYYTAIGDFTCPRKYFFIAPLGVGTSLSDLLKNPRKLVQGLRENWDKYCKDKITQNCLIKLSDMEPQLEKIDFSIFGYVTPLTIIEQHRKTPHFITRFGGGLPKREIPPEPPIKSTSEESEYLKKILQAYSDFNKQDISTIDDVTDIDLTEHYKDSRIQFYSAEALKRFSRDALPENEFKLLQQEFLNGIKDEIRNPVHANGYLRLLEVVKVARALQITSHALIDCLMVNDRGGICHQLANDNESIAWAKNG
MGSDKIHHHHHHMSVETLPIILKELRLVSLLPHWQPLAEKAREQHWPVERYLAELCQLELSCREQKRLHRGLKEATLPIGKYLDTYDFSEVEGLSKKQVWHLADNAEWLKTGDNILLFGASGLGKTHIAAGLGYRLVEQGHRVKFMSASLLVQHLQKAKEELRLPEALVKLDRFAVLILDDLGYVQKSTEETSVLFELIAHRYERYSLIITSNQSFEDWDKLFSDTVMTVAAIDRLIHHAKILQCKGESYRRKEAQNKLN
MGSDKIHHHHHHMTAIANRYEFVLLFDVENGNPNGDPDAGNMPRIDPETGHGLVTDVCLKRKIRNHVALTKEGAERFNIYIQEKAILNETHERAYTACDLKPEPKKLPKKVEDAKRVTDWMCTNFYDIRTFGAVMTTEVNCGQVRGPVQMAFARSVEPVVPQEVSITRMAVTTKAEAEKQQGDNRTMGRKHIVPYGLYVAHGFISAPLAEKTGFSDEDLTLFWDALVNMFEHDRSAARGLMSSRKLIVFKHQNRLGNAPAHKLFDLVKVSRAEGSSGPARSFADYAVTVGQAPEGVEVKEML
MGSDKIHHHHHHMTAIQHIERLARGRSEQAVAVIKNVQQMSNIPMHEMQLALKQLLNCGRIALHFHPDRIDSRGMTVAEGLLRDGQYRSQFETHISNGQLSPELGGPRDHWENQLFGDVYKGTKSRPKYGALDLGMWQDGPAPRFGSCYLLTHASVMARSTFCYLDSYRNPKEKGTLSCFDDVLAALLTESFERHYALGKSDFKPLNVIHYLGHQLNASLLSRFERPLSNNLDHYIEAQIHGDVSLDEDIAMLVADPSFKGTDIGASLSKICDRYDIELQYHDGFSLHTAQIPSDFRGPTMPSQANRIAIEDRVDAYAIGVAARDLYHSPQHWRDRGNRAQVAHELKLLWHVLVKYGAVQ
MGSDKIHHHHHHMTAQRPNRLINESSPYLLQHARNPVDWHPWGEEAFALARSEDKPVFLSIGYSTCHWCHVMAHESFEDEAVAALLNEAFINVKVDREDRPDIDSIYMAACQMLTGSGGWPLTIVMTPDGRPFFAATYIPRLSRGGRTGMLELVPRIRDIWRKQRADVTASADSVAEHMRRHAEGLLRPSSGGAPDDTTVRQAVDTLCQRYDARHGGFGSAPKFPAPHSLLLLLRHAHRTQDAARRAQLTGMVSHTLEAMRLGGIFDHAGYGFHRYSTDKEWLLPHFEKMLYDQAMHVLAYTRGWQLTGRPLFRRTAEEIMMYVMRDLTSPQGAFYAAEDADSDAPPHFAAMGLPHRGEGFFYLFTLQEIRGLLSREDALLAEKIWNLQEEGN
MGSDKIHHHHHHMTARTSALAIEIDRQDRSPIYLQICERFRTAIAAGHLRPGDRVPALRGLALQLNTARGTVEMAYTILVDEGYLQMRGAAGTFVSASLPASVTRPARGGDREQPPAREQGATKSSHALRGRQPATRQLAIAVAMSGEPKLLQPGLPALDAFPRKLWNRLVSRCARSGERAMLAYPDPVGYRALREHIATYLGLSRGVACVPEQVFITAGYRATLELVLRSLASPNDRMWFEDPGYLLARGFLAEVGVNLVPVPIDSEGIDVDRGIALDPLARFALVTPSHQAPLGYTLSLARRMALLDWAAKGSSWIIEDDYDSEFRYVGRPLPALKSLDKDDRVIYCGTFSKVMFPGLRLAYAVVPERAVERVERVACSMNAGSPTLLQAAVADFIEQGHFARHVKRMRALYGQRRTLIAHALEQAFGERMLVELPHGGIQFAVQFAEGPDGPVDDVAVAARARDAGLAVVPLSIWYANGRTRRTPRGLVMGFANVTDAREALRLARTLYGCLTG
MGSDKIHHHHHHMTDCADAQGLIAKITGVCFNHQLNIIKNSEFVDNAQGRFFMRTELEGHFHCEQLLQDLRQVLPAQNHMTLVSAGKKRIVILVTKEAHCLGDLLMKAYYGGLNVEIAAVVGNHDVLRELVEKFDIPFHLVSHEGLDRIQHEQALLAAVSQYSPDYLVLAKYMRVLTPDFVAEYPNRILNIHHSFLPAFIGAAPYRQAWERGVKIIGATAHFVNNCLDEGPIIKQDVIPVDHSYSALEMAKAGRDVEKSVLSKALQLVLNEQVVVYGNKTIVF
MGSDKIHHHHHHMTDKLLKQHKRLLEQQHKLPYTINLSGEVFTIIIYTKLSKVAGVTVLNSQEEPATVKEAEAVVNRIQKYNFYFEYLGKRAHVIKERDSIIAEKIEQTQLILNDNTIFGEKMQPTIDELNLAMEVYKQQQRKMDVYQEDITLLNQKIKMQGEILEEDWESAENLSIAFAKAAYAQSIYLEATRKNRKQLAKWFHLHQKELPTDKQKALSKMVSVLSDTNAGLVFDQIISLRPLLEEGLMLDHEQSLTQRAAEFNKEFETHCRFYKPNINKVKNLIRQ
MGSDKIHHHHHHMTDLGLYRHLDQMAPWNDRLQVLEVIGVSDEAPDVKTFTFRSDNQTWFRYKPGQFVTLELPTPDGPLMRTYTLSSSPSRPFSIAVTVKAQAGSIGTRWMFDHLVPGSHVKAYGPSGDFSLHSHPAAKYLFISAGSGVTPMMSMLRWLNDCAPWTDVGFVNCARRPEEIIFRKELELLGGHMPGLSLGFMIEERSSREGWYGHMGRIDAIRLPLLAPDFREREIFCCGPDPFMRAVRGMLEAAGFDMTKYHQESFAAPAVEEVPAPFVSPGEDGVTVPVEATPIRFALSVVDAECVAGQTVLQTARASGVRIPAACEFGLCGTCKVKKVSGAVEMSHNGGILDHEIDDGFILACCSKPLSALEIEA
MGSDKIHHHHHHMTEATYNFAYLDEQTKRMIRRAILKGIAIPGYQVPFASREMPMPYGWGTGGVQVTASILGPDDTLKVIDQGSDDTTNAISIRKFFAKTAGVATTTATPDASVIQTRHRIPETPLHEGQVLVYQVPIPEPLRYLEPRETETRRMHALAEYGLMHVKLYEDIAKFGHIATAYAYPVKVAGRYVMDPSPTPKFDNPKMDNCPALQLFGAGREKRIYAIPPYTQVVSLDFEDHPFTRYRQDGCCALCGADDSYLDEIVTDNAGTRMFVCSDTDYCEGRRAQGHTGSETAPMESAHA
